These results are taken from patent US20250179176A1, “ANTI-TIGIT ANTIBODIES AND USES OF THE SAME” (ARCUS BIOSCIENCES, INC., priority 2022, published 2025).

One assay deals with Human TIGIT (human) (UniProt Q495A1). The assay can be described thus: flow cytometry receptor occupancy on patients' whole blood, competitive anti-TIGIT antibody MBSA43 as detector, Q2W dosing.
Another assay deals with human FcγR3A (human) (UniProt P08637). Description: ELISA, FcγR3A coated on plate, anti-human IgG HRP, chemiluminescence. In general terms: ELISA stands for enzyme-linked immunosorbent assay.
Sequence of human FcγR3A (human) (P08637 17-208 limits assumed): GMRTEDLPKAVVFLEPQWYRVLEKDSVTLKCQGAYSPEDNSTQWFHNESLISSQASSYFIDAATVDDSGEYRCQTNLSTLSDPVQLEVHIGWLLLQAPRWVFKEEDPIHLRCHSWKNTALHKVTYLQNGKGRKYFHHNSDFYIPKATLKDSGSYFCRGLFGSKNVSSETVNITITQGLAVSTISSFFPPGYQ

Sequence of Human TIGIT (human) (Q495A1 other isoform, or with tags, fused parts or gaps): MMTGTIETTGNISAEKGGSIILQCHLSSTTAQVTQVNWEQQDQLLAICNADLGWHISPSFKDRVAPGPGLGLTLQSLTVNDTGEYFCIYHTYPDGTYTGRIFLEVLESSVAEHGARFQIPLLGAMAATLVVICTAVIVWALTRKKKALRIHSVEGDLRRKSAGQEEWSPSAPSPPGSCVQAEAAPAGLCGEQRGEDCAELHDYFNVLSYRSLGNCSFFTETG

domvanalimab (antibody) yielded a receptor occupancy (RO) with Human TIGIT (human) above 98%. Also, in the assay with human FcγR3A (human), the percent of the binding of human IgG1 to the same receptor stood at 20%.
